From US20220315554A1, “COMPOUNDS COMPRISING A […] LIGAND AND USE THEREOF” (priority 2019, published 2022)

Key:
[1] = target: T1, Recombinant human FAP (R&D systems, #3715-SE) (human)
T1 sequence: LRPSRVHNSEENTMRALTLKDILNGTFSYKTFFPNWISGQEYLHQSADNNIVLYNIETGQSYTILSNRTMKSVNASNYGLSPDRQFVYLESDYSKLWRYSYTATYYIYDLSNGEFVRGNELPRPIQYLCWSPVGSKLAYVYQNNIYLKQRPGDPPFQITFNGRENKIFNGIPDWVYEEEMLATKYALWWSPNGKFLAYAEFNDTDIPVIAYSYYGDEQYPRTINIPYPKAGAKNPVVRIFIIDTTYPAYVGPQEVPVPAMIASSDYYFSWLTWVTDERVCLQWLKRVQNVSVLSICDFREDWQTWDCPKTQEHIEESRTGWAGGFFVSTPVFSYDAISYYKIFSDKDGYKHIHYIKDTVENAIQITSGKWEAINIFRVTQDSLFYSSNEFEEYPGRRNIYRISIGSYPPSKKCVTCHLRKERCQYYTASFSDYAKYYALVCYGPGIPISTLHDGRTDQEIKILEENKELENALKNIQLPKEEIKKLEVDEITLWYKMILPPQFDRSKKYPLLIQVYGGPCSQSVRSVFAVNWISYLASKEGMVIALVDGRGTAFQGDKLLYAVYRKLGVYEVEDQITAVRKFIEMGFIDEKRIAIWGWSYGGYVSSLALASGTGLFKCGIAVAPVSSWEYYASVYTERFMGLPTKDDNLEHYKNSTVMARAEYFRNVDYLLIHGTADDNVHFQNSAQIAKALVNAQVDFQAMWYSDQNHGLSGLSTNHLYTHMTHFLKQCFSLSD

[2] = target: T2, A20 (Homo sapiens (Human)) (UniProt P21580)
T2 sequence: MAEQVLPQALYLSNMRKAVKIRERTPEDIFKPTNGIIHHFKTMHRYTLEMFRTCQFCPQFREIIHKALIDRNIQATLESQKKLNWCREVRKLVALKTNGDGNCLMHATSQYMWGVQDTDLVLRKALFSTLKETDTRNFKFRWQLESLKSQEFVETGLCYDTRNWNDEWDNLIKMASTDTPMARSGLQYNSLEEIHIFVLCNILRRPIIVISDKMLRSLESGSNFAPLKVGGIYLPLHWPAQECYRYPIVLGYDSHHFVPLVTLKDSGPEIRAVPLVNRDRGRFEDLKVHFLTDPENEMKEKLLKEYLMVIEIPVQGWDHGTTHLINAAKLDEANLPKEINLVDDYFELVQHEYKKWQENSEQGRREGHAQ

[3] = target: Ataxin3 (Homo sapiens (Human)) (UniProt P54252)
Chain of Ataxin3 (Homo sapiens (Human)) (P54252 whole entry): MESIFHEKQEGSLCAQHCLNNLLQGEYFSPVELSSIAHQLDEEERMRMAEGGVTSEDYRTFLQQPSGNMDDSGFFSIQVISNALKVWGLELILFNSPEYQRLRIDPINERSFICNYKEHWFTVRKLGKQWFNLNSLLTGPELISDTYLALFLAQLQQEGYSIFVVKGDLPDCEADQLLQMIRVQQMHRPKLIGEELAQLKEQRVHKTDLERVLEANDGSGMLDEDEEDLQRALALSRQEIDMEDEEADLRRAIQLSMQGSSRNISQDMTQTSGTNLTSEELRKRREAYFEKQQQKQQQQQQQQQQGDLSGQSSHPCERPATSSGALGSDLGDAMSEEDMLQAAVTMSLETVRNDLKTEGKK

[4] = target: Caspase-8 (Homo sapiens (Human)) (UniProt Q14790)
Chain of Caspase-8 (Homo sapiens (Human)) (Q14790 217-479 limits assumed): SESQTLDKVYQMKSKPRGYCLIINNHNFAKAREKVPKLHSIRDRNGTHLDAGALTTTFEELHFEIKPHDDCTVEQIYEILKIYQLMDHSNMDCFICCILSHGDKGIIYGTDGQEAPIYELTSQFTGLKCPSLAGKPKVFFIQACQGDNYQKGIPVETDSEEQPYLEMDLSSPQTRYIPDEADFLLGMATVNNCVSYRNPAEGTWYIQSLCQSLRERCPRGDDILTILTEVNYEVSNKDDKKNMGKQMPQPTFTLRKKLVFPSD

[5] = target: Cathepsin S (Homo sapiens (Human)) (UniProt P25774)
[6] = target: DPP9 (Homo sapiens (Human)) (UniProt Q86TI2)
[7] = target: Matrix metalloprotease 2 (Homo sapiens (Human)) (UniProt P08253)
Chain of Matrix metalloprotease 2 (Homo sapiens (Human)) (P08253 110-660): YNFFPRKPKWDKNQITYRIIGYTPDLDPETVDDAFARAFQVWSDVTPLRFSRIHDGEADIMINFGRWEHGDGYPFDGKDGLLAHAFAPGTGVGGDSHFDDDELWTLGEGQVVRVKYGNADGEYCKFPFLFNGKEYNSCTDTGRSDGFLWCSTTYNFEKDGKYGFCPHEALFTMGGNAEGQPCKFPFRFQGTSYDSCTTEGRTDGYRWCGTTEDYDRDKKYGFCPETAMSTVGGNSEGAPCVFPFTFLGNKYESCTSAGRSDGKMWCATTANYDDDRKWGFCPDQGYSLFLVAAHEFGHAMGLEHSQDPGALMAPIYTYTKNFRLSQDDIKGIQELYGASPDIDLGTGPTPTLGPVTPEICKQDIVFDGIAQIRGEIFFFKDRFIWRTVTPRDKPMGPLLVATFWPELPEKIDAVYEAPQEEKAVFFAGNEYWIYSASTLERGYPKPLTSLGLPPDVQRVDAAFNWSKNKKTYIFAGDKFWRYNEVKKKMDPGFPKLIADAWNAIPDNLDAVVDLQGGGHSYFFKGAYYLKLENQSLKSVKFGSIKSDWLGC

[8] = target: Ubiquitin carboxy-terminal hydrolase 10 (Homo sapiens (Human)) (UniProt Q14694)
Chain of Ubiquitin carboxy-terminal hydrolase 10 (Homo sapiens (Human)) (Q14694 whole entry): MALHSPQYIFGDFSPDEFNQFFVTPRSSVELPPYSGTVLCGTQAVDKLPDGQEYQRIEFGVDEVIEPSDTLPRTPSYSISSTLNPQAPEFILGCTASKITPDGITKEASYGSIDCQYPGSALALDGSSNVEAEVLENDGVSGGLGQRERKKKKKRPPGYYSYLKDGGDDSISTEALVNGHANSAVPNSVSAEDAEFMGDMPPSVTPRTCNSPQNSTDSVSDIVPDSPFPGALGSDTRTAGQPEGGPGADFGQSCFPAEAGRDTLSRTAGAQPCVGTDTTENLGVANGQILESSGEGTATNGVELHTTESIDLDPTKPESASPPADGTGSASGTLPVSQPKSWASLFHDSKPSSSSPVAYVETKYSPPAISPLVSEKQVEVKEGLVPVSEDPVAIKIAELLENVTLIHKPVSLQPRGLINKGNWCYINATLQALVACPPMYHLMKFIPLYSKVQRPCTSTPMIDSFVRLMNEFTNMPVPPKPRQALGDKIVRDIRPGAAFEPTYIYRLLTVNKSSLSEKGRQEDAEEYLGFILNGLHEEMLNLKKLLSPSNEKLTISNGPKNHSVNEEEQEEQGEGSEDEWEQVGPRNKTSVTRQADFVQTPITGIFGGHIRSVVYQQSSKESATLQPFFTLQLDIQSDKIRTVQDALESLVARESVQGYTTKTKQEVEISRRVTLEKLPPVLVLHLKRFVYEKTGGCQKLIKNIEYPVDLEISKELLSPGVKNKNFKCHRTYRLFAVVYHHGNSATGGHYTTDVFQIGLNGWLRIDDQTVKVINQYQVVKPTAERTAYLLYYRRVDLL

[9] = target: Ubiquitin carboxy-terminal hydrolase 14 (Homo sapiens (Human)) (UniProt P54578)
[10] = target: Ubiquitin carboxy-terminal hydrolase L1 (Homo sapiens (Human)) (UniProt P09936)
[11] = target: T3, Ubiquitin carboxy-terminal hydrolase L3 (Homo sapiens (Human)) (UniProt P15374)
T3 sequence: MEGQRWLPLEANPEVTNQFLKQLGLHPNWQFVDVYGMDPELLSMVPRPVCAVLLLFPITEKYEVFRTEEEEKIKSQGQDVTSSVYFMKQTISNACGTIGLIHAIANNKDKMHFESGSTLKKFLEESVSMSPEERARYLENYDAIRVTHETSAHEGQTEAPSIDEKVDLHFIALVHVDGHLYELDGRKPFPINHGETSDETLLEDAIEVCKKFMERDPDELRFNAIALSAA

[12] = target: T4, DPP3 (Homo sapiens (Human)) (UniProt Q9NY33)
T4 sequence: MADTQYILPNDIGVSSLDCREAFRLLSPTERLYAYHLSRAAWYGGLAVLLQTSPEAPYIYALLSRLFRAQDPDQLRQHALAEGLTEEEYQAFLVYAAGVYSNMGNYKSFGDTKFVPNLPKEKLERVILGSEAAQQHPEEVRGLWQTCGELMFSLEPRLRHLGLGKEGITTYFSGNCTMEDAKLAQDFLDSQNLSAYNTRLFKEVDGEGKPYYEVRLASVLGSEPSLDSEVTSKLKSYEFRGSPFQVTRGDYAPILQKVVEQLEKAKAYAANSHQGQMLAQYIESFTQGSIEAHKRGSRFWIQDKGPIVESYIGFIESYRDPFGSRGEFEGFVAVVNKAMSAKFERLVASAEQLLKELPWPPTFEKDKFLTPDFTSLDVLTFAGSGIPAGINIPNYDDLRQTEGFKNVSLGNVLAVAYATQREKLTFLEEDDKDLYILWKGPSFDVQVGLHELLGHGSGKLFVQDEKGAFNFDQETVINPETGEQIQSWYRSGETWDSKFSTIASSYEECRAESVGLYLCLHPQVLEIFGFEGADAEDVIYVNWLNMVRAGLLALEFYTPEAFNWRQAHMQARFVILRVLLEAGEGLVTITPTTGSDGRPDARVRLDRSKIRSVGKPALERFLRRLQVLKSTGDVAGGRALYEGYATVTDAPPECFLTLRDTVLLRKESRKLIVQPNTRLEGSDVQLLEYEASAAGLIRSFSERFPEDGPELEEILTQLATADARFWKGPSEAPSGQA

pIC50 Category (Activity) [1] [pIC50]	Percentage inhibition (%) at 10 µM [2] [%]	Percentage inhibition (%) at 10 µM [4] [%]	Percentage inhibition (%) at 10 µM [5] [%]	Percentage inhibition (%) at 10 µM [6] [%]	Percentage inhibition (%) at 10 µM [7] [%]	Percentage inhibition (%) at 10 µM [8] [%]	Percentage inhibition (%) at 10 µM [9] [%]	Percentage inhibition (%) at 10 µM [10] [%]	Percentage inhibition (%) at 10 µM [11] [%]	Percentage inhibition (%) at 10 µM [12] [%]	Substance	Percentage inhibition (%) at 10 µM [3] [%]
> 8	-4	0	18	0	3	5	5	4	14	–	Hex-[Cys(tMeBn(DOTA-PP))-Pro-Pro-Thr-Gln-Phe-Cys]-Asp-NH2 (peptide)	10
–	0	-3	-23	-5	-2	-1	2	4	0	-1	Hex-[Cys(tMeBn(DOTA-AET))-Pro-Pro-Thr-Gln-Phe-Cys]-OH (peptide)	-1
